Target: human recombinant endorepellin tagged with His6, from 293-EBNA cells (human) (UniProt P98160)
Experiment: cell-based or functional assay

UniProt P98160, sequence (P98160 3687-4391 limits assumed): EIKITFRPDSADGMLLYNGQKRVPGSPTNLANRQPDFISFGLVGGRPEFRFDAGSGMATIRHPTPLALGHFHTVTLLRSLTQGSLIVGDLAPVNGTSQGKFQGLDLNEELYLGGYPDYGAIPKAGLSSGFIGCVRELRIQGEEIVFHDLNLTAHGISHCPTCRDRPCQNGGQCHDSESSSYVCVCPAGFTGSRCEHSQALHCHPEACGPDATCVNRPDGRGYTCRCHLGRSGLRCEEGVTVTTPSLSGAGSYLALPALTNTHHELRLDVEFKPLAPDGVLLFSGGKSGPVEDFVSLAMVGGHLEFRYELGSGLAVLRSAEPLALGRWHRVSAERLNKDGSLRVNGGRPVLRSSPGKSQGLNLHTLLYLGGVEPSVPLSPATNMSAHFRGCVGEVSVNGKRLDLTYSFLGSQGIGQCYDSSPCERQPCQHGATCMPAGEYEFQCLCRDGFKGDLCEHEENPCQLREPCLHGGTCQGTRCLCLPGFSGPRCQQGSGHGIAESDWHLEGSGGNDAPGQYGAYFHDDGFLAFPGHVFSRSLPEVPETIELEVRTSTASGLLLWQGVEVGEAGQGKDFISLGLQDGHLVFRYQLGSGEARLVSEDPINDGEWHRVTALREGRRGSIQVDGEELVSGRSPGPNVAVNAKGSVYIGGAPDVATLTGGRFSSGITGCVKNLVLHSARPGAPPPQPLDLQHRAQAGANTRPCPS

- VEGF-induced HUVEC migration through fibrillar collagen (molar ratio of endostatin/endorepellin): 1
Substance: recombinant endostatin purified from Pichia pastoris yeast cells (Calbiochem-Novabiochem)
